Test: Concentration of cytochrome P450 in cell-free extract by carbon monoxide difference spectrum (Omura and Sato)
Experimental: Measurement is performed according to the method of Omura and Sato et al. (J Biol Chem, 239. 1964, 2370). That is to say, cytochrome P450 is analyzed quantitatively using the following formula, based on the difference in the absorbance of the reduced CO versus the reduced difference spectrum at 450 nm and 490 nm.
Measurement of the concentration of cytochrome P450 were performed according to the method of Omura and Sato et al. (J Biol Chem, 239. 1964, 2370). Cytochrome P450 concentrations of cell-free extracts of induced E. coli BL21 (DE3) Rosetta2 & Tuner cells harbouring either pHD05-SriC01, pHD02-SriC12-SriF05, pHD05-SriC14-SriF06, pHD05-SriC20, pHD05-SriC22 or pHD05-SriC51-SriF08 are shown in Table 2. Carbon monoxide difference spectra for P450SriC01, P450SriC12, P450SriC14, P450SriC20, P450SriC22 and P450SriC51 are shown in FIGS. 9, 10, 11, 19, 20 & 21 respectively.
The native and codon optimised P450sriC12 and ferredoxinsriF05 in pHD02-SriC12-SriF05 and pHD02-SriC12CO-SriF05CO respectively were introduced into E. coli BL21 (DE3). The recombinant strains were cultured and proteins were induced as in Example 2. The cell-free extract material was obtained as in Example 3 and carbon monoxide difference spectrums were measure to calculate the concentration of cytochrome P450.
The resulting plasmids containing the new mutants genes were transformed into recombinant E. coli strains for expression as described in Example 1, cultured and induced as described in Example 2, extracted and processed as described in Example 3 and tested for biocatalytic activity as described in Example 5 above. The carbon monoxide difference spectrum result of R63W mutant of codon optimised P450SriC12 is shown in FIG. 14 and the cytochrome P450 concentration of mutant P450SriC12 are shown in Table 5.

[1] = native enzymes expressed in E. coli BL21 (DE3) Rosetta2 & Tuner cells, cell-free extract
[2] = mutant P450SriC12 expressed in E. coli BL21 (DE3)

B1: SriC14-SriF06: cytochrome P450 SriC14 (SEQ ID NO: 34) with ferredoxin SriF06 (SEQ ID NO: 35) (protein, listed as Streptomyces rimosus)
chain 1: MTETSTAFPAQDAPAFPSDRTCPYGLPETYARLRDSEDALRPVTLFDGRTAWVVTKHETARTLLADPRLSSNRTHPDFPLTSPRLAGLRDRRPAFISMDPPEHGPRRRMTISEFTVKRIKGMRPDIERIVHGFLDEMLAAGPPADLVSRFALPVPSMVICQLLGVPYADHDFFQDASRRLVQSTSAEEATGARDDLERYLDGLITTLESEPGPGLLGALVTRQLADGAIDRDELISNALLLLVAGHETTASMTSLSVITLLEHPEQHAALRDDPSLIPGAVEELLRYLAIADVAGARVATADIEVDGQVIRAGEGVIVVHSIANRDAGVFENPDTFDIHRSARHHLSFGYGVHQCLGQNLARLELEIILSALFERIPTLRLATPVERLTLRPGSTIQGVNELPVTW
chain 2: MHVTADRDVCVGAGMCALTAPGVFDQDDDGLVTVLTSDIGENDRDAVREAGMLCPSGALRVTE
With B1 the P450 concentration [1] was 15.4 µM.

B2: SriC01: cytochrome P450 from Streptomyces rimosus NRRL-2234, amino acid sequence SEQ ID NO: 2 (protein, listed as Streptomyces rimosus)
chain: MTETIPFEAVDGAVRPSEEVPVVDLSATGLSDTPLQQAMGLAREHGAVYRRRLHGHEALLVSSLELVTELADENRFAKGVSVALENVREFAGDGLFTAYNDEPNWAKAHDILMPAFALGSMRTYHPAMLKVARRVIGSWDRRAADGTPVDVPDDMTRMTLDTIGLAGFGFDFESFSRATMHPFVEAMVRCLEWSMKRLGREPDGDYTEEDAAFRADADYLASVVDEVIASRTGADGTPGEEAGDDLLGLMLGATHPADGTTLDLANIRNQVITFLIAGHETTSGALSFALYHLLKDPAALRLAQREADELWGDQTDPDPSFEDIGRLPYTRQVLNEALRLWPTAAAFSRQARTDTLLGGRIPLKAGQLVTVLTPMLHRDPAWGDNPELFDPTRFAPEAEAARSPHAYKPFGTGERACIGRQFALHEATMLLAMLVHRYRLIDHSDYRLSIKETLTLKPDGFTLTLARRTPADRAGLRAALAVLPGGAAEPDGTESGTDDGLPTRVRQDTALLLLHGTNYGTCRDFAERIADEATGLGFTTEVAPLDAATGALPTDRPVVIVTASYNGQPTDDAARFVEWLSGDEARAEGVPYAVLGVGDRNWAATYQRVPTLLDERLAALGAERLLPRGEADASGDLNGAVKAFTATLRTELLVRYGDPATIGASTPADATDASYTVREVTGGPLDALAARHGLQPMTVTEAYDLTAPGYPRVKRFLRLTLPEGVTYRTADHLAVLPANGAAAVERAAQVLGVSLEAVLDIRAGAGRGGRDTLPVDRPLTVRQLLTHHLELNARPTAAQRAVLADHNPCPPERAALQAIPDDDPRTTLDLIEEHPALRGVLPWPVLLDLLPALRIRHYSLSSSPAADPRHADLMVSLLPGGTGSGHLHTLRPGDTVLARVQPCREAFRLDPADPTPVILVAAGTGLAPFRGAVADRLAATQLAPALLYFGCDALEADYLHAEELQAAEAAGAVSLRPAFSARPVDGCRYVQHRIAAEAEEVGALLDAGARVYVCGDGNRMAPGVRAAFRELYAARTGATQEEAEVWLRELTAAGRYVEDVYVTG
In the case of B2, the P450 concentration [1] is reported as 33.5 µM.

B3: SriC22: cytochrome P450 from Streptomyces rimosus NRRL-2234, SEQ ID NO: 51 (protein, listed as Streptomyces rimosus)
chain: MTTSPTESTTATPPDSTTASAPGTPPDALPSYVGLHPGEPNVMEPELLNDPYAGYGKLREQGALVRGRFLDDSPVWLVTRFDVVREVMRDPRFINNPSRLPGRTEKDPRAQLIELFGIPDHMARYLVDTILTSDPPDHTRLRRLVSRAFTARRIQDLRPRVEAITDELLDRLPAHAQDGVVDLVEHFAYPLPITVICELVGIDEEDRPLWRQFGADLTSLEPKRIGATVPAMVEHIHKVIGERQSALRDDLLSALIRARDDDGGRLSETEMVTMVLTLVLAGHETTAHLISNGTLALLTHPDQRRLLTEDPGLLPRAVHELMRWCGPIQATQLRYASEDVEVAGTQVHKGDALMFSLVAANHDPRHYTEPEKLDLTRQPAGRAEDHVGFGHGMHYCLGASLARQEGEVAFGKLLARYPEVALALPHEQLEEQERIRQPGSWRLRRLPLRLRPED
Molecule B3 has a P450 concentration [1] of 18.4 µM.

B4: SriC51-SriF08: cytochrome P450 SriC51 (SEQ ID NO: 109) with ferredoxin SriF08 (SEQ ID NO: 110) (protein, listed as Streptomyces rimosus)
chain 1: MTTADTMPLAYPFNDADGLALSETYEQVRDRPGLLRVQMAYGEPAWLATRYADARLVLGDRRFSRAEGLERDEPRQSEGQRDSGILSMDPPDHTRLRTLVAKAFTVHQVEKLRPWVRELTHGLIDELEAAGPPVDLVDRYALPIPVAVICRMLGVPEEDRPKFRTWSDAALSTSSLTAEEFEANREELRAYMAKLIEDHRTTPRDDLMTRLIEARDVGDRLSELELIDLCVGILVAGHETTATQIPNFVLSLLDHPGELERLRAEPALIKSAVEELLRFVPLGSGAGFPRYATEDIEVGGTLVRAGEPVLVAVGAANRDALRFDEPGTLNITRDGNQHLGFGHGVHHCLGAPLARLELQEALIALITRFPKLHVAGDVVWKDQMLVRGPRVMPVGW
chain 2: MTWKAAIDGQQCMASGMCAGIAPDLFVLDGPHARPLQEEIPEDEAALDAADSCPAMAILIRDGEKVVGPRP
Molecule B4 has a P450 concentration [1] of 25.0 µM.

B5: SriC20: cytochrome P450 from Streptomyces rimosus NRRL-2234, SEQ ID NO: 47 (protein, listed as Streptomyces rimosus)
chain: MPEIIDLGAYGPDFVADPHPYYAKLRAQGPVHRVRAPEMEPEFPQAWLIVGYDEARAVLADNRFAKDWSRANGSLADSEVLAEWQLMNMLDADPPQHTRLRKLVAREFTTRRVEALRPRVQQITDELLDAMLAAPDGRADLVEALAFPLPMTVICELLGVPDIERDTFRAWSNELVSPTDNEATMTAAREMAAYLDGLIESKRSSPGEDLLSALVRTSDEDGDQLSRQELLGMAFLLLVAGHETTVNLISNGVRALLQHPAQLAALRADPSLLDNAVEEMLRYDGPVETATWRFTAEPVGIGGVEIPAGEIVLVGLAGADRDPERFEAPDTFDITRETRGHVAFGHGIHFCLGAPLARVEGRIAVRTLLDRCPDLALDTAPEALTWRAGMTIRGPQHLPVRWR
Work on B5 yielded a P450 concentration [1] of 18.8 µM.

B6: SriC12-SriF05: cytochrome P450 SriC12 (SEQ ID NO: 29) co-expressed with ferredoxin SriF05 (SEQ ID NO: 30), native coding sequence (protein, listed as Streptomyces rimosus)
chain 1: MTEALPFPQDRTCPYDPPAGYQPLRDSRPLSRVTLYDGRPAWVVTGHAESRALLTDPRLSADRQNPAFPSPAPRFETLRKVRTPLLGVDDPEHNTQRRMLIPSFSVKRAAALRPRIQEIVDRLLDAMEQQGPPAELVSAFALPVPSMVICALLGVPYADHELFEGLSRTLLQSADPQEVTEARDKLEDYFTALVERKRKEPGDGLLDELIAERLDSGELGHRELVRMAMLLLVAGHETTSNMLSLGTFTLLEHPEQFAALRADPSLLPAAVEELLRFLSIADGMVRVATEDIEIGGVTIRADDGVIFSTSVVNRDGAAYASPDTLDWERSARHHVAFGFGVHQCLGQNLARAEMEIAFGALFARFPGLRLAVPAAEIPVKPAHALQGLVELPVTW
chain 2: MKIDIDTSVCIGSGQCVLTAPGVFTQDDDGFSTLLPGREDGTGDPLVREAARACPVQAIAVTDD
Molecule B6 has a P450 concentration (effect of codon optimisation, expressed in E. coli BL21 (DE3), value ± SD) of 3.6 ± 0.3 µM and a P450 concentration [1] of 3.6 µM.

B7: Mutant 10 L171I: L171I mutant of codon optimised cytochrome SriC12, SEQ ID NO: 235 (protein)
chain: MTEALPFPQDRTCPYDPPAGYQPLRDSRPLSRVTLYDGRPAWVVTGHAESRALLTDPRLSADRQNPAFPSPAPRFETLRKVRTPLLGVDDPEHNTQRRMLIPSFSVKRAAALRPRIQEIVDRLLDAMEQQGPPAELVSAFALPVPSMVICALLGVPYADHELFEGLSRTLIQSADPQEVTEARDKLEDYFTALVERKRKEPGDGLLDELIAERLDSGELGHRELVRMAMLLLVAGHETTSNMLSLGTFTLLEHPEQFAALRADPSLLPAAVEELLRFLSIADGMVRVATEDIEIGGVTIRADDGVIFSTSVVNRDGAAYASPDTLDWERSARHHVAFGFGVHQCLGQNLARAEMEIAFGALFARFPGLRLAVPAAEIPVKPAHALQGLVELPVTW
modifications: L171I mutant of SriC12
With B7 the P450 concentration [2] was 12.4 µM.

B8: Mutant 14 L230I: L230I mutant of codon optimised cytochrome SriC12, SEQ ID NO: 237 (protein)
chain: MTEALPFPQDRTCPYDPPAGYQPLRDSRPLSRVTLYDGRPAWVVTGHAESRALLTDPRLSADRQNPAFPSPAPRFETLRKVRTPLLGVDDPEHNTQRRMLIPSFSVKRAAALRPRIQEIVDRLLDAMEQQGPPAELVSAFALPVPSMVICALLGVPYADHELFEGLSRTLLQSADPQEVTEARDKLEDYFTALVERKRKEPGDGLLDELIAERLDSGELGHRELVRMAMILLVAGHETTSNMLSLGTFTLLEHPEQFAALRADPSLLPAAVEELLRFLSIADGMVRVATEDIEIGGVTIRADDGVIFSTSVVNRDGAAYASPDTLDWERSARHHVAFGFGVHQCLGQNLARAEMEIAFGALFARFPGLRLAVPAAEIPVKPAHALQGLVELPVTW
modifications: L230I mutant of SriC12
Molecule B8 has a P450 concentration [2] of 3.5 µM.
